Values joined by “and” are separate entries in the source; they are usually repeats but may differ in a detail not shown here. Identical values can stand only once. Each block holds one substance with its values, some of them ahead of it.
Experiments:
ERα = target: T1, ERα (Homo sapiens, UniProt P03372); assay: Phage ELISA / fingerprint on ER immobilized on biotinylated ERE (Examples 2.3-2.5); type: binding; parameters: purchased PanVera Corporation, Madison, WI; key to binding activity, ERα and buffer / binding activity, ERα and estradiol / binding activity, ERα and tamoxifen / binding of peptide, Class Specific Fingerprint on ERα: semiquantitative scale of 0 to 7+; 1+: semiquantitative scale of 0 to 7+; 2+: semiquantitative scale of 0 to 7+; 3+: semiquantitative scale of 0 to 7+; 4+: semiquantitative scale of 0 to 7+; 5+: semiquantitative scale of 0 to 7+; 6+: semiquantitative scale of 0 to 7+; semiquantitative scale of 0 to 7+; settings: for binding activity, ERα and estradiol: ERα and estradiol (1 µM); for binding activity, ERα and tamoxifen: ERα and tamoxifen (4-OH tamoxifen, 1 µM)
T1 sequence (P03372 1-595): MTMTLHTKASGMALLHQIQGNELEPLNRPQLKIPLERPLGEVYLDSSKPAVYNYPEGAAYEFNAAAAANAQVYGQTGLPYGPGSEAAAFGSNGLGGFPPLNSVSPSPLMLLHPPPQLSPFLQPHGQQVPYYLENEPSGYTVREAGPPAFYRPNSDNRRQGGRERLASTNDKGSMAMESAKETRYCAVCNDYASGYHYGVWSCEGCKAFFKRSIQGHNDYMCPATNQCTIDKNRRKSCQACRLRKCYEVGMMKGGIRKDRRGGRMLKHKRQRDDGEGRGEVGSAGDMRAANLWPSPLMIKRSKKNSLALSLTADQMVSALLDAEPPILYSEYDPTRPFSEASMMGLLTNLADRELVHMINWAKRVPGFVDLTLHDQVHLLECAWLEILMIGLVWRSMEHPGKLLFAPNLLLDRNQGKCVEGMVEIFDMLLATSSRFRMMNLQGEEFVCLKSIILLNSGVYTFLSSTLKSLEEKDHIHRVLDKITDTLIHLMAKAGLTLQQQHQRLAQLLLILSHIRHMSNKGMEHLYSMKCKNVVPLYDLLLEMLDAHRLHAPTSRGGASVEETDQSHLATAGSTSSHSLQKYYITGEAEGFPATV

ERβ = ERβ (Homo sapiens, UniProt Q92731); assay: as above; type: binding; parameters: purchased PanVera Corporation, Madison, WI; key: semiquantitative scale of 0 to 7+; 1+: semiquantitative scale of 0 to 7+; 2+: semiquantitative scale of 0 to 7+; 3+: semiquantitative scale of 0 to 7+; 4+: semiquantitative scale of 0 to 7+; 5+: semiquantitative scale of 0 to 7+; 6+: semiquantitative scale of 0 to 7+; semiquantitative scale of 0 to 7+; settings: for binding activity, ERβ and Estradiol: ERβ and Estradiol (1 µM); for binding activity, ERβ and tamoxifen: ERβ and tamoxifen (4-OH tamoxifen, 1 µM)
[1] = 4-OH Tamoxifen present during binding
[2] = 16a-OH Estrone present during binding
[3] = Clomiphene present during binding
[4] = Estradiol present during binding
[5] = ICI 182,780 present during binding
[6] = Nafoxidine present during binding
[7] = Premarin present during binding
[8] = Progesterone present during binding
[9] = Raloxifene present during binding

ERβ, sequence (Q92731 whole entry): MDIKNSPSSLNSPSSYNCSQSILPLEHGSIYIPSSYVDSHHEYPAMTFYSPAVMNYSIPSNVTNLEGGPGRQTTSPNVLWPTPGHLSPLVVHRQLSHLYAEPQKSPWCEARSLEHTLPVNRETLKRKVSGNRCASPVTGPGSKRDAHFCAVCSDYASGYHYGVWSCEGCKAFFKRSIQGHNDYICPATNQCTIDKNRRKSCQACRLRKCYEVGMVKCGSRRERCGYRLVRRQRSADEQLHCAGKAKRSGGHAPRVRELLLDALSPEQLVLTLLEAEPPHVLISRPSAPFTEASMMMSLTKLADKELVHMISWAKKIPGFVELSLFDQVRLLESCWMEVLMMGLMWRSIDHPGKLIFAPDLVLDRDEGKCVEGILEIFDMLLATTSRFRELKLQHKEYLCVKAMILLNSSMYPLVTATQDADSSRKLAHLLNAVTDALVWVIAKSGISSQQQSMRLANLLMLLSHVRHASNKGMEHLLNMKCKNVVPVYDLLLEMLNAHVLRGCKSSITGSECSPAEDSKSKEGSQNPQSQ

binding activity, ERα and buffer (ERα): 2+
binding activity, ERα and estradiol (ERα): 2+
binding activity, ERα and tamoxifen (ERα): 3+
binding activity, ERβ and Estradiol (ERβ): 7+
binding activity, ERβ and buffer (ERβ): 7+
binding activity, ERβ and tamoxifen (ERβ): 7+
Substance: HSWLGPWRLSSIDLGG [Peptide 24b-β]

binding activity, ERα and buffer (ERα): 3+
binding activity, ERα and estradiol (ERα): 6+ and 3+
binding activity, ERα and tamoxifen (ERα): 3+
binding activity, ERβ and Estradiol (ERβ): 7+ and 6+
binding activity, ERβ and buffer (ERβ): 7+
binding activity, ERβ and tamoxifen (ERβ): 3+ and 7+
Substance: HSYSSHPLLLSYLWGG [Peptide 23b-β]

binding of peptide, Class Specific Fingerprint on ERα (ERα; [1]): 1+
binding of peptide, Class Specific Fingerprint on ERα (ERα; [2]): 2+
binding of peptide, Class Specific Fingerprint on ERα (ERα; [3]): 1+
binding of peptide, Class Specific Fingerprint on ERα (ERα; DES present during binding): 2+
binding of peptide, Class Specific Fingerprint on ERα (ERα; [4]): 2+
binding of peptide, Class Specific Fingerprint on ERα (ERα; Estriol present during binding): 4+
binding of peptide, Class Specific Fingerprint on ERα (ERα; [5]): 1+
binding of peptide, Class Specific Fingerprint on ERα (ERα; [6]): 1+
binding of peptide, Class Specific Fingerprint on ERα (ERα; [7]): 2+
binding of peptide, Class Specific Fingerprint on ERα (ERα; [8]): 6+
binding of peptide, Class Specific Fingerprint on ERα (ERα; [9]): 1+
binding of peptide, Class Specific Fingerprint on ERα (ERα; buffer present during binding): 7+
binding of peptide, Class Specific Fingerprint on ERβ (ERβ; [1]): 1+
binding of peptide, Class Specific Fingerprint on ERβ (ERβ; [2]): 3+
binding of peptide, Class Specific Fingerprint on ERβ (ERβ; [3]): 1+
binding of peptide, Class Specific Fingerprint on ERβ (ERβ; DES present during binding): 3+
binding of peptide, Class Specific Fingerprint on ERβ (ERβ; [4]): 2+
binding of peptide, Class Specific Fingerprint on ERβ (ERβ; Estriol present during binding): 6+
binding of peptide, Class Specific Fingerprint on ERβ (ERβ; [5]): 2+
binding of peptide, Class Specific Fingerprint on ERβ (ERβ; [6]): 4+
binding of peptide, Class Specific Fingerprint on ERβ (ERβ; [7]): 4+
binding of peptide, Class Specific Fingerprint on ERβ (ERβ; [8]): 6+
binding of peptide, Class Specific Fingerprint on ERβ (ERβ; [9]): 4+
binding of peptide, Class Specific Fingerprint on ERβ (ERβ; buffer present during binding): 7+
Substance: S A A P R T I S H Y L M G G (SAAPRTISHYLMGG) [#48 ER]

binding of peptide, Class Specific Fingerprint on ERα (ERα; [1]): 6+
binding of peptide, Class Specific Fingerprint on ERα (ERα; [2]): 2+
binding of peptide, Class Specific Fingerprint on ERα (ERα; [3]): 5+
binding of peptide, Class Specific Fingerprint on ERα (ERα; DES present during binding): 3+
binding of peptide, Class Specific Fingerprint on ERα (ERα; [4]): 2+
binding of peptide, Class Specific Fingerprint on ERα (ERα; Estriol present during binding): 2+
binding of peptide, Class Specific Fingerprint on ERα (ERα; [5]): 2+
binding of peptide, Class Specific Fingerprint on ERα (ERα; [6]): 2+
binding of peptide, Class Specific Fingerprint on ERα (ERα; [7]): 2+
binding of peptide, Class Specific Fingerprint on ERα (ERα; [8]): 4+
binding of peptide, Class Specific Fingerprint on ERα (ERα; [9]): 2+
binding of peptide, Class Specific Fingerprint on ERα (ERα; buffer present during binding): 5+
Substance: S R T W E S P L G T W E W S R (SRTWESPLGTWEWSR) [#13 ER]

binding activity, ERα and buffer (ERα): 6+
binding activity, ERα and estradiol (ERα): 5+
binding activity, ERα and tamoxifen (ERα): 6+
binding activity, ERβ and Estradiol (ERβ): 7+
binding activity, ERβ and buffer (ERβ): 5+
binding activity, ERβ and tamoxifen (ERβ): 3+
Substance: SRDWRSGFLYELLSR [Peptide 4E-β]

binding activity, ERα and buffer (ERα): 2+
binding activity, ERα and estradiol (ERα): 2+
binding activity, ERα and tamoxifen (ERα): 2+
binding activity, ERβ and Estradiol (ERβ): 7+
binding activity, ERβ and buffer (ERβ): 7+
binding activity, ERβ and tamoxifen (ERβ): 7+
Substance: SRECVGGWCLAELSR [Peptide 18b-β]

binding activity, ERα and buffer (ERα): 5+
binding activity, ERα and estradiol (ERα): 7+
binding activity, ERα and tamoxifen (ERα): 5+
binding activity, ERβ and Estradiol (ERβ): 7+
binding activity, ERβ and buffer (ERβ): 5+
binding activity, ERβ and tamoxifen (ERβ): 2+
Substance: SREGLLMRLLIGDSR [Peptide 14E-β]

binding activity, ERα and estradiol (ERα): 1+
binding activity, ERα and tamoxifen (ERα): 1+
binding activity, ERβ and Estradiol (ERβ): 7+
binding activity, ERβ and buffer (ERβ): 7+
binding activity, ERβ and tamoxifen (ERβ): 7+
Substance: SREGWMGPWRLADSR [Peptide 12t-β]

binding activity, ERα and buffer (ERα): 2+
binding activity, ERα and estradiol (ERα): 2+
binding activity, ERα and tamoxifen (ERα): 3+
binding activity, ERβ and Estradiol (ERβ): 7+
binding activity, ERβ and buffer (ERβ): 7+
binding activity, ERβ and tamoxifen (ERβ): 7+
Substance: SREWEDGFGGRWLSR [Peptide 4t-β]

binding activity, ERα and buffer (ERα): 6+
binding activity, ERα and estradiol (ERα): 7+
binding activity, ERα and tamoxifen (ERα): 5+
binding activity, ERβ and Estradiol (ERβ): 7+
binding activity, ERβ and buffer (ERβ): 4+
binding activity, ERβ and tamoxifen (ERβ): 2+
Substance: SRHGILWDLLQGDSR [Peptide 2E-β]

Substance: SRLEDLLRGDSKPQSR [Peptide 7E-β]
binding activity, ERα and buffer (ERα): 4+
binding activity, ERα and estradiol (ERα): 6+
binding activity, ERα and tamoxifen (ERα): 3+
binding activity, ERβ and Estradiol (ERβ): 6+
binding activity, ERβ and buffer (ERβ): 5+
binding activity, ERβ and tamoxifen (ERβ): 1+

binding activity, ERα and buffer (ERα): 3+
binding activity, ERα and estradiol (ERα): 5+
binding activity, ERα and tamoxifen (ERα): 3+
binding activity, ERβ and Estradiol (ERβ): 7+
binding activity, ERβ and buffer (ERβ): 3+
binding activity, ERβ and tamoxifen (ERβ): 1+
Substance: SRLEELLRVGVLTSR [Peptide 6E-β]

binding activity, ERα and buffer (ERα): 4+
binding activity, ERα and estradiol (ERα): 7+
binding activity, ERα and tamoxifen (ERα): 3+
binding activity, ERβ and Estradiol (ERβ): 7+
binding activity, ERβ and buffer (ERβ): 7+
binding activity, ERβ and tamoxifen (ERβ): 2+
Substance: SRLHCLLDSSYCSSR [Peptide 1b-β]

binding activity, ERα and buffer (ERα): 4+
binding activity, ERα and estradiol (ERα): 5+
binding activity, ERα and tamoxifen (ERα): 4+
binding activity, ERβ and Estradiol (ERβ): 6+
binding activity, ERβ and buffer (ERβ): 3+
binding activity, ERβ and tamoxifen (ERβ): 1+
Substance: SRLHDLLLRDESPSR [Peptide 3E-β]

binding activity, ERα and buffer (ERα): 7+
binding activity, ERα and estradiol (ERα): 6+
binding activity, ERα and tamoxifen (ERα): 7+
binding activity, ERβ and Estradiol (ERβ): 3+
binding activity, ERβ and buffer (ERβ): 6+
binding activity, ERβ and tamoxifen (ERβ): 7+
Substance: SRLNGVFCHDSSDLWVCSR [Peptide 18t-β]

binding activity, ERα and buffer (ERα): 3+
binding activity, ERα and estradiol (ERα): 3+
binding activity, ERα and tamoxifen (ERα): 6+
binding activity, ERβ and Estradiol (ERβ): 2+
binding activity, ERβ and buffer (ERβ): 3+
binding activity, ERβ and tamoxifen (ERβ): 7+
Substance: SRLPPSVFSMCGSEVCLSR [Peptide 9t-β]

binding activity, ERα and buffer (ERα): 7+
binding activity, ERα and estradiol (ERα): 6+
binding activity, ERα and tamoxifen (ERα): 7+
binding activity, ERβ and Estradiol (ERβ): 5+
binding activity, ERβ and buffer (ERβ): 7+
binding activity, ERβ and tamoxifen (ERβ): 7+
Substance: SRMFQVCGDEVCLRSR [Peptide 16t-β]

binding activity, ERα and buffer (ERα): 3+
binding activity, ERα and estradiol (ERα): 2+
binding activity, ERα and tamoxifen (ERα): 4+
binding activity, ERβ and Estradiol (ERβ): 7+
binding activity, ERβ and buffer (ERβ): 7+
binding activity, ERβ and tamoxifen (ERβ): 7+
Substance: SRNECIGPWCLTISR [Peptide 13t-β]

binding activity, ERα and buffer (ERα): 5+
binding activity, ERα and estradiol (ERα): 4+
binding activity, ERα and tamoxifen (ERα): 4+
binding activity, ERβ and Estradiol (ERβ): 7+
binding activity, ERβ and buffer (ERβ): 3+
binding activity, ERβ and tamoxifen (ERβ): 1+
Substance: SRNLLCLLDQEACSR [Peptide 17E-β]

binding activity, ERα and buffer (ERα): 5+
binding activity, ERα and estradiol (ERα): 6+
binding activity, ERα and tamoxifen (ERα): 4+
binding activity, ERβ and Estradiol (ERβ): 7+
binding activity, ERβ and buffer (ERβ): 5+
binding activity, ERβ and tamoxifen (ERβ): 2+
Substance: SRPEGSSWLLHYLSR [Peptide 24E-β]

binding activity, ERα and buffer (ERα): 2+
binding activity, ERα and estradiol (ERα): 2+
binding activity, ERα and tamoxifen (ERα): 3+
binding activity, ERβ and Estradiol (ERβ): 6+
binding activity, ERβ and buffer (ERβ): 7+
binding activity, ERβ and tamoxifen (ERβ): 7+
Substance: SRPGCLRGVWCLADTPPSR [Peptide 20t-β]

binding activity, ERα and buffer (ERα): 2+
binding activity, ERα and estradiol (ERα): 2+
binding activity, ERα and tamoxifen (ERα): 3+
binding activity, ERβ and Estradiol (ERβ): 6+
binding activity, ERβ and buffer (ERβ): 7+
binding activity, ERβ and tamoxifen (ERβ): 7+
Substance: SRPYCLGDVWCLDSR [Peptide 2t-β]

binding activity, ERα and buffer (ERα): 5+
binding activity, ERα and estradiol (ERα): 6+
binding activity, ERα and tamoxifen (ERα): 4+
binding activity, ERβ and Estradiol (ERβ): 7+
binding activity, ERβ and buffer (ERβ): 4+
binding activity, ERβ and tamoxifen (ERβ): 2+
Substance: SRSPILWHLLQDGSR [Peptide 10E-β]

binding activity, ERα and buffer (ERα): 6+
binding activity, ERα and estradiol (ERα): 4+
binding activity, ERα and tamoxifen (ERα): 5+
binding activity, ERβ and Estradiol (ERβ): 7+
binding activity, ERβ and buffer (ERβ): 5+
binding activity, ERβ and tamoxifen (ERβ): 2+
Substance: SRWWLDDHELLLYSSR [Peptide 26E-β]

binding activity, ERα and buffer (ERα): 4+
binding activity, ERα and estradiol (ERα): 5+
binding activity, ERα and tamoxifen (ERα): 3+
binding activity, ERβ and Estradiol (ERβ): 7+
binding activity, ERβ and buffer (ERβ): 3+
binding activity, ERβ and tamoxifen (ERβ): 1+
Substance: SSAGLLEDMLRSRSR [Peptide 21E-β]
